Reference: PMC13544220, “Glycemic and bodyweight effects of GIPR coding variation reflect differences in surface expression and intrinsic functional impairment” (Science Advances, 2026)

Key:
Assay type in all cases: cell-based, human
[1] = tested on: wild-type and variant SNAP-GIPR; experiment: Constitutive and agonist-mediated internalization, reversible SNAP-tag labelling, INS-1 cells; parameters: key to Internalisation, GIP-only / Internalisation, Vehicle / Internalisation, +GIP: % internalization: residual fluorescence after Mesna vs pre-Mesna; details: Mean; for +GIP internalisation (100 nM) / GIP-specific internalisation (100 nM) / Constitutive internalisation (100 nM): Fig 4G; for +GIP internalisation (100 nM) / GIP-specific internalisation (100 nM): GIP 100 nM; for Internalisation, +GIP / Internalisation, GIP-only / Internalisation, Vehicle: Fig S4C, INS-1
Summary of the method: (§1)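 Percentage internalization is read as the fraction of specific SNAP fluorescence that survives Mesna stripping, compared with the image taken before Mesna. Wells are imaged in TNE buffer at pH 8.6 and again after 10 min.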

[2] = tested on: wild-type and variant SNAP-GIPR; experiment: cADDis cAMP imaging in AD293 cells, ensemble, expression-matched and per decile; details: Fig S3F, cADDis, mean;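 also: Ensemble cells as % of IBMX/FSK response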
Summary of the method: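 Surface GIPR and cAMP are measured in individual AD293 cells coexpressing SNAP-tagged receptor and the green cADDis biosensor, imaged live at 37°C. Responses are reported ensemble, expression-matched against wild-type deciles with extremes trimmed, or within each variant's own surface deciles.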

[3] = tested on: wild-type and variant SNAP-GIPR; experiment: Surface SNAP-GIPR expression (SNAP-tag labelling) in AD293 cells; details: for AD293 Surface: Fig S3E, mean; for Surface SNAP-GIPR expression: sheet Fig 1C;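 as to all read-outs here: scaled to the experimental average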
Summary of the method: (§2)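 Read-out: whole-cell fluorescence of surface-only SNAP label (Alexa Fluor 647, 500 nM, 10 min, RT), wide-field 20X, several FOVs per well. Flat-field corrected, phase-contrast masked, nontransfected-well signal subtracted; normalized to experiment mean or wild-type.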

[4] = tested on: wild-type and variant SNAP-GIPR; experiment: Single-concentration GIP cAMP response by HTRF in INS-1 cells; details: Fig S3E, mean
Experimental: (§3) All variants were tested in parallel on each occasion to control for transfection efficiency differences between experiments.

[5] = tested on: wild-type and variant SNAP-GIPR; experiment: Surface SNAP-GIPR expression (SNAP-tag labelling) in INS-1 cells; details: Fig 4G; Mean
Summary of the method: as §2

[6] = tested on: wild-type and variant SNAP-GIPR; experiment: Single-concentration GIP cAMP response by HTRF in AD293 cells; details: Fig S3F, HTRF, mean;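 also: ratio to experiment-wide average response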
Experimental: as §3

[7] = tested on: wild-type and variant SNAP-GIPR; experiment: Constitutive and agonist-mediated internalization, reversible SNAP-tag labelling, AD293 cells; parameters: key to Internalisation, Vehicle / Internalisation, +GIP / Internalisation, GIP-only: % internalization: residual fluorescence after Mesna vs pre-Mesna; Surface expression: unit not given here; details: Mean; for +GIP internalisation (100 nM) / GIP-specific internalisation (100 nM) / Constitutive internalisation (100 nM) / Surface expression: Fig 4E; for +GIP internalisation (100 nM) / GIP-specific internalisation (100 nM): GIP 100 nM; for Internalisation, +GIP / Internalisation, GIP-only / Internalisation, Vehicle: Fig S4C, AD293
Summary of the method: as §1

[8] = column repeated, paired with cAMP 100 nM

B1: A207V (protein)
chain: RAETGSKGQTAGELYQRWERYRRECQETLAAAEPPSGLACNGSFDMYVCWDYAAPNATARASCPWYLPWHHHVAAGFVLRQCGSDGQWGLWRDHTQCENPEKNEAFLDQRLILERLQVMYTVGYSLSLATLLLALLILSLFRRLHCTRNYIHINLFTSFMLRAAAILSRDRLLPRPGPYLGDQALVLWNQALAACRTAQIVTQYCVGANYTWLLVEGVYLHSLLVLVGGSEEGHFRYYLLLGWGAPALFVIPWVIVRYLYENTQCWERNEVKAIWWIIRTPILMTILINFLIFIRILGILLSKLRTRQMRCRDYRLRLARSTLTLVPLLGVHEVVFAPVTEEQARGALRFAKLGFEIFLSSFQGFLVSVLYCFINKEVQSEIRRGWHHCRLRRSLGEEQRQLPERAFRALPSGSGPGEVPTSRGLSSGTLPGPGNEASRELESYC
- +GIP internalisation (100 nM) [1]: 0.5824
- GIP-specific internalisation (100 nM) [1]: 0.1595
- Constitutive internalisation (100 nM) [1]: 0.4229
- Internalisation, +GIP [1]: 49.74
- Internalisation, GIP-only [1]: 13.34
- Internalisation, Vehicle [1]: 36.4
- AD293 100 pM cADDis [2]: 35.8816
- AD293 100 nM cADDis [2]: 38.26
- AD293 Surface [3, 8]: 1.462
- AD293 Surface ([3]; paired with cAMP 100 pM): 1.462
- Surface SNAP-GIPR expression ([3]; replicate 1): 1.611
- Surface SNAP-GIPR expression ([3]; replicate 2): 2.305
- Surface SNAP-GIPR expression ([3]; replicate 3): 1.718
- Surface SNAP-GIPR expression ([3]; replicate 4): 1.422
- Surface SNAP-GIPR expression ([3]; replicate 5): 1.389
- Surface SNAP-GIPR expression ([3]; replicate 6): 1.632
- Surface SNAP-GIPR expression ([3]; replicate 7): 1.104
- Surface SNAP-GIPR expression ([3]; replicate 8): 1.459
- Surface SNAP-GIPR expression ([3]; replicate 9): 1.373
- Surface SNAP-GIPR expression ([3]; replicate 10): 1.394
- Surface SNAP-GIPR expression ([3]; replicate 11): 1.581
- Surface SNAP-GIPR expression ([3]; replicate 12): 1.452
- Surface SNAP-GIPR expression ([3]; replicate 13): 1.286
- Surface SNAP-GIPR expression ([3]; replicate 14): 1.785
- Surface SNAP-GIPR expression ([3]; replicate 15): 1.758
- Surface SNAP-GIPR expression ([3]; replicate 16): 1.437
- Surface SNAP-GIPR expression ([3]; replicate 17): 1.378
- Surface SNAP-GIPR expression ([3]; replicate 18): 1.497
- Surface SNAP-GIPR expression ([3]; replicate 19): 1.272
- Surface SNAP-GIPR expression ([3]; replicate 20): 1.519
- Surface SNAP-GIPR expression ([3]; replicate 21): 1.502
- Surface SNAP-GIPR expression ([3]; replicate 22): 1.331
- Surface SNAP-GIPR expression ([3]; replicate 23): 1.374
- Surface SNAP-GIPR expression ([3]; replicate 24): 1.462
- Surface SNAP-GIPR expression ([3]; replicate 25): 1.289
- Surface SNAP-GIPR expression ([3]; replicate 26): 1.598
- Surface SNAP-GIPR expression ([3]; replicate 27): 1.353
- Surface SNAP-GIPR expression ([3]; replicate 28): 1.177
- Surface SNAP-GIPR expression ([3]; replicate 29): 1.377
- Surface SNAP-GIPR expression ([3]; replicate 30): 1.555
- Surface SNAP-GIPR expression ([3]; replicate 31): 1.582
- Surface SNAP-GIPR expression ([3]; replicate 32): 1.61
- Surface SNAP-GIPR expression ([3]; replicate 33): 1.695
- Surface SNAP-GIPR expression ([3]; replicate 34): 1.496
- Surface SNAP-GIPR expression ([3]; replicate 35): 1.543
- Surface SNAP-GIPR expression ([3]; replicate 36): 1.703
- Surface SNAP-GIPR expression ([3]; replicate 37): 1.143
- Surface SNAP-GIPR expression ([3]; replicate 38): 1.04
- Surface SNAP-GIPR expression ([3]; replicate 39): 1.054
- Surface SNAP-GIPR expression ([3]; replicate 40): 1.392
- Surface SNAP-GIPR expression ([3]; replicate 41): 1.284
- INS-1 cAMP (100 nM) [4]: 1.4138
- Surface expression [5]: 1.239
- AD293 100 pM HTRF [6]: 1.772
- AD293 100 nM HTRF [6]: 1.3964
- +GIP internalisation (100 nM) [7]: 0.7742
- GIP-specific internalisation (100 nM) [7]: 0.2212
- Constitutive internalisation (100 nM) [7]: 0.553
- Surface expression [7]: 1.34
- Internalisation, +GIP [7]: 58.1109
- Internalisation, GIP-only [7]: 16.6766
- Internalisation, Vehicle [7]: 41.4343

B2: S415G (protein, UniProt P48546 22-466, looked up, variant S415G)
Gastric inhibitory …: RAETGSKGQTAGELYQRWERYRRECQETLAAAEPPSGLACNGSFDMYVCWDYAAPNATARASCPWYLPWHHHVAAGFVLRQCGSDGQWGLWRDHTQCENPEKNEAFLDQRLILERLQVMYTVGYSLSLATLLLALLILSLFRRLHCTRNYIHINLFTSFMLRAAAILSRDRLLPRPGPYLGDQALALWNQALAACRTAQIVTQYCVGANYTWLLVEGVYLHSLLVLVGGSEEGHFRYYLLLGWGAPALFVIPWVIVRYLYENTQCWERNEVKAIWWIIRTPILMTILINFLIFIRILGILLSKLRTRQMRCRDYRLRLARSTLTLVPLLGVHEVVFAPVTEEQARGALRFAKLGFEIFLSSFQGFLVSVLYCFINKEVQSEIRRGWHHCRLRRGLGEEQRQLPERAFRALPSGSGPGEVPTSRGLSSGTLPGPGNEASRELESYC
- +GIP internalisation (100 nM) [1]: 0.6865
- GIP-specific internalisation (100 nM) [1]: 0.178
- Constitutive internalisation (100 nM) [1]: 0.5085
- Internalisation, +GIP [1]: 49.94
- Internalisation, GIP-only [1]: 12.7417
- Internalisation, Vehicle [1]: 37.1983
- AD293 100 pM cADDis [2]: 34.3916
- AD293 100 nM cADDis [2]: 37.46
- AD293 Surface [3, 8]: 1.467
- AD293 Surface ([3]; paired with cAMP 100 pM): 1.467
- Surface SNAP-GIPR expression ([3]; replicate 1): 1.506
- Surface SNAP-GIPR expression ([3]; replicate 2): 0.2667
- Surface SNAP-GIPR expression ([3]; replicate 3): 1.585
- Surface SNAP-GIPR expression ([3]; replicate 4): 2.194
- Surface SNAP-GIPR expression ([3]; replicate 5): 1.195
- Surface SNAP-GIPR expression ([3]; replicate 6): 1.281
- Surface SNAP-GIPR expression ([3]; replicate 7): 1.352
- Surface SNAP-GIPR expression ([3]; replicate 8): 1.443
- Surface SNAP-GIPR expression ([3]; replicate 9): 1.419
- Surface SNAP-GIPR expression ([3]; replicate 10): 1.583
- Surface SNAP-GIPR expression ([3]; replicate 11): 1.553
- Surface SNAP-GIPR expression ([3]; replicate 12): 1.476
- Surface SNAP-GIPR expression ([3]; replicate 13): 2.028
- Surface SNAP-GIPR expression ([3]; replicate 14): 1.05
- Surface SNAP-GIPR expression ([3]; replicate 15): 1.445
- Surface SNAP-GIPR expression ([3]; replicate 16): 1.582
- Surface SNAP-GIPR expression ([3]; replicate 17): 1.552
- Surface SNAP-GIPR expression ([3]; replicate 18): 1.539
- Surface SNAP-GIPR expression ([3]; replicate 19): 1.754
- Surface SNAP-GIPR expression ([3]; replicate 20): 1.368
- Surface SNAP-GIPR expression ([3]; replicate 21): 1.348
- Surface SNAP-GIPR expression ([3]; replicate 22): 1.435
- Surface SNAP-GIPR expression ([3]; replicate 23): 1.476
- Surface SNAP-GIPR expression ([3]; replicate 24): 1.595
- Surface SNAP-GIPR expression ([3]; replicate 25): 1.677
- Surface SNAP-GIPR expression ([3]; replicate 26): 1.136
- Surface SNAP-GIPR expression ([3]; replicate 27): 1.395
- Surface SNAP-GIPR expression ([3]; replicate 28): 1.292
- Surface SNAP-GIPR expression ([3]; replicate 29): 1.605
- Surface SNAP-GIPR expression ([3]; replicate 30): 1.394
- Surface SNAP-GIPR expression ([3]; replicate 31): 1.688
- Surface SNAP-GIPR expression ([3]; replicate 32): 1.36
- Surface SNAP-GIPR expression ([3]; replicate 33): 1.647
- Surface SNAP-GIPR expression ([3]; replicate 34): 1.582
- Surface SNAP-GIPR expression ([3]; replicate 35): 1.005
- Surface SNAP-GIPR expression ([3]; replicate 36): 1.822
- Surface SNAP-GIPR expression ([3]; replicate 37): 1.489
- Surface SNAP-GIPR expression ([3]; replicate 38): 1.364
- Surface SNAP-GIPR expression ([3]; replicate 39): 0.9756
- Surface SNAP-GIPR expression ([3]; replicate 40): 1.792
- Surface SNAP-GIPR expression ([3]; replicate 41): 1.893
- INS-1 cAMP (100 nM) [4]: 1.389
- Surface expression [5]: 1.381
- AD293 100 pM HTRF [6]: 1.117
- AD293 100 nM HTRF [6]: 1.323
- +GIP internalisation (100 nM) [7]: 0.8449
- GIP-specific internalisation (100 nM) [7]: 0.2187
- Constitutive internalisation (100 nM) [7]: 0.6262
- Surface expression [7]: 1.57
- Internalisation, +GIP [7]: 54.2947
- Internalisation, GIP-only [7]: 14.1911
- Internalisation, Vehicle [7]: 40.1036
